Reference: US20220048967A1 (published 2022)
Numbered stars: 1 amine (or outer) side, 2 acyl side, 3 side chain; on linkers, the order of the positions; unused ones are H or OH. Square brackets hold non-standard residues; d marks the D form. Side chains are listed from the residue outwards. Ends that are not written are not given here. * marks the point of attachment. C20 diacid = O=C(O)CCCCCCCCCCCCCCCCCCC(=O)*; γGlu = O=C(O)[C@H](CCC(=O)[*:2])N[*:1]; AEEA = NCCOCCOCC(=O)O; Aib = CC(C)(N)C(=O)O

T1: human GIP receptor (human, UniProt P48546 22-466)
T1 sequence (looked up): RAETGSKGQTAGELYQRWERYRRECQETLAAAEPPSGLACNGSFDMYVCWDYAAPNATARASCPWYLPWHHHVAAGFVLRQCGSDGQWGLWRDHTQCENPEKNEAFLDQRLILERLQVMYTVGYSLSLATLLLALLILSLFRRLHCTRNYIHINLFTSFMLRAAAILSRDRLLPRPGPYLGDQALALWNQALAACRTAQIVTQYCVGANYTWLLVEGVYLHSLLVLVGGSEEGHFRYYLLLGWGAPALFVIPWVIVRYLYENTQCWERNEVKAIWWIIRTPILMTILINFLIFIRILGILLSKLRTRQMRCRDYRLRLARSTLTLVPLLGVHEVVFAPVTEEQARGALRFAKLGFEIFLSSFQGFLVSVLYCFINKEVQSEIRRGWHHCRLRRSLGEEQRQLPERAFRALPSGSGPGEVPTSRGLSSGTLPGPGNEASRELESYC

B1: Example 44 (peptide)
peptide: Y[Aib]EGTFTSDYSILLDKIAQ[Aib]AFIEYLIEGGPSSGK([AEEA-AEEA-γGlu-C20 diacid])PPPS-NH2
modifications: N-terminus assumed
SMILES: CC[C@H](C)[C@H](NC(=O)[C@H](CCCCN)NC(=O)[C@H](CC(=O)O)NC(=O)[C@H](CC(C)C)NC(=O)[C@H](CC(C)C)NC(=O)[C@@H](NC(=O)[C@H](CO)NC(=O)[C@H](Cc1ccc(O)cc1)NC(=O)[C@H](CC(=O)O)NC(=O)[C@H](CO)NC(=O)[C@@H](NC(=O)[C@H](Cc1ccccc1)NC(=O)[C@@H](NC(=O)CNC(=O)[C@H](CCC(=O)O)NC(=O)C(C)(C)NC(=O)[C@@H](N)Cc1ccc(O)cc1)[C@@H](C)O)[C@@H](C)O)[C@@H](C)CC)C(=O)N[C@@H](C)C(=O)N[C@@H](CCC(N)=O)C(=O)NC(C)(C)C(=O)N[C@@H](C)C(=O)N[C@@H](Cc1ccccc1)C(=O)N[C@H](C(=O)N[C@@H](CCC(=O)O)C(=O)N[C@@H](Cc1ccc(O)cc1)C(=O)N[C@@H](CC(C)C)C(=O)N[C@H](C(=O)N[C@@H](CCC(=O)O)C(=O)NCC(=O)NCC(=O)N1CCC[C@H]1C(=O)N[C@@H](CO)C(=O)N[C@@H](CO)C(=O)NCC(=O)N[C@@H](CCCCNC(=O)COCCOCCNC(=O)COCCOCCNC(=O)CC[C@H](NC(=O)CCCCCCCCCCCCCCCCCCC(=O)O)C(=O)O)C(=O)N1CCC[C@H]1C(=O)N1CCC[C@H]1C(=O)N1CCC[C@H]1C(=O)N[C@@H](CO)C(N)=O)[C@@H](C)CC)[C@@H](C)CC
B2: Example 45 (peptide)
peptide: Y[Aib]EGTFTSDYSILLDKIAQ[Aib]AFIEYLIEGGPSSGAK([AEEA-AEEA-γGlu-C20 diacid])PPS-NH2
modifications: N-terminus assumed
SMILES: CC[C@H](C)[C@H](NC(=O)[C@H](CCCCN)NC(=O)[C@H](CC(=O)O)NC(=O)[C@H](CC(C)C)NC(=O)[C@H](CC(C)C)NC(=O)[C@@H](NC(=O)[C@H](CO)NC(=O)[C@H](Cc1ccc(O)cc1)NC(=O)[C@H](CC(=O)O)NC(=O)[C@H](CO)NC(=O)[C@@H](NC(=O)[C@H](Cc1ccccc1)NC(=O)[C@@H](NC(=O)CNC(=O)[C@H](CCC(=O)O)NC(=O)C(C)(C)NC(=O)[C@@H](N)Cc1ccc(O)cc1)[C@@H](C)O)[C@@H](C)O)[C@@H](C)CC)C(=O)N[C@@H](C)C(=O)N[C@@H](CCC(N)=O)C(=O)NC(C)(C)C(=O)N[C@@H](C)C(=O)N[C@@H](Cc1ccccc1)C(=O)N[C@H](C(=O)N[C@@H](CCC(=O)O)C(=O)N[C@@H](Cc1ccc(O)cc1)C(=O)N[C@@H](CC(C)C)C(=O)N[C@H](C(=O)N[C@@H](CCC(=O)O)C(=O)NCC(=O)NCC(=O)N1CCC[C@H]1C(=O)N[C@@H](CO)C(=O)N[C@@H](CO)C(=O)NCC(=O)N[C@@H](C)C(=O)N[C@@H](CCCCNC(=O)COCCOCCNC(=O)COCCOCCNC(=O)CC[C@H](NC(=O)CCCCCCCCCCCCCCCCCCC(=O)O)C(=O)O)C(=O)N1CCC[C@H]1C(=O)N1CCC[C@H]1C(=O)N[C@@H](CO)C(N)=O)[C@@H](C)CC)[C@@H](C)CC
B3: Example 46 (peptide)
peptide: Y[Aib]EGTFTSDYSILLDKIAQ[Aib]AFIEYLIEGGPSSGAPK([AEEA-AEEA-γGlu-C20 diacid])PS-NH2
modifications: N-terminus assumed
SMILES: CC[C@H](C)[C@H](NC(=O)[C@H](CCCCN)NC(=O)[C@H](CC(=O)O)NC(=O)[C@H](CC(C)C)NC(=O)[C@H](CC(C)C)NC(=O)[C@@H](NC(=O)[C@H](CO)NC(=O)[C@H](Cc1ccc(O)cc1)NC(=O)[C@H](CC(=O)O)NC(=O)[C@H](CO)NC(=O)[C@@H](NC(=O)[C@H](Cc1ccccc1)NC(=O)[C@@H](NC(=O)CNC(=O)[C@H](CCC(=O)O)NC(=O)C(C)(C)NC(=O)[C@@H](N)Cc1ccc(O)cc1)[C@@H](C)O)[C@@H](C)O)[C@@H](C)CC)C(=O)N[C@@H](C)C(=O)N[C@@H](CCC(N)=O)C(=O)NC(C)(C)C(=O)N[C@@H](C)C(=O)N[C@@H](Cc1ccccc1)C(=O)N[C@H](C(=O)N[C@@H](CCC(=O)O)C(=O)N[C@@H](Cc1ccc(O)cc1)C(=O)N[C@@H](CC(C)C)C(=O)N[C@H](C(=O)N[C@@H](CCC(=O)O)C(=O)NCC(=O)NCC(=O)N1CCC[C@H]1C(=O)N[C@@H](CO)C(=O)N[C@@H](CO)C(=O)NCC(=O)N[C@@H](C)C(=O)N1CCC[C@H]1C(=O)N[C@@H](CCCCNC(=O)COCCOCCNC(=O)COCCOCCNC(=O)CC[C@H](NC(=O)CCCCCCCCCCCCCCCCCCC(=O)O)C(=O)O)C(=O)N1CCC[C@H]1C(=O)N[C@@H](CO)C(N)=O)[C@@H](C)CC)[C@@H](C)CC
B4: Example 47 (peptide)
peptide: Y[Aib]EGTFTSDYSILLDKIAQ[Aib]AFIEYLIEGGPSSGAPPK([AEEA-AEEA-γGlu-C20 diacid])S-NH2
modifications: N-terminus assumed
SMILES: CC[C@H](C)[C@H](NC(=O)[C@H](CCCCN)NC(=O)[C@H](CC(=O)O)NC(=O)[C@H](CC(C)C)NC(=O)[C@H](CC(C)C)NC(=O)[C@@H](NC(=O)[C@H](CO)NC(=O)[C@H](Cc1ccc(O)cc1)NC(=O)[C@H](CC(=O)O)NC(=O)[C@H](CO)NC(=O)[C@@H](NC(=O)[C@H](Cc1ccccc1)NC(=O)[C@@H](NC(=O)CNC(=O)[C@H](CCC(=O)O)NC(=O)C(C)(C)NC(=O)[C@@H](N)Cc1ccc(O)cc1)[C@@H](C)O)[C@@H](C)O)[C@@H](C)CC)C(=O)N[C@@H](C)C(=O)N[C@@H](CCC(N)=O)C(=O)NC(C)(C)C(=O)N[C@@H](C)C(=O)N[C@@H](Cc1ccccc1)C(=O)N[C@H](C(=O)N[C@@H](CCC(=O)O)C(=O)N[C@@H](Cc1ccc(O)cc1)C(=O)N[C@@H](CC(C)C)C(=O)N[C@H](C(=O)N[C@@H](CCC(=O)O)C(=O)NCC(=O)NCC(=O)N1CCC[C@H]1C(=O)N[C@@H](CO)C(=O)N[C@@H](CO)C(=O)NCC(=O)N[C@@H](C)C(=O)N1CCC[C@H]1C(=O)N1CCC[C@H]1C(=O)N[C@@H](CCCCNC(=O)COCCOCCNC(=O)COCCOCCNC(=O)CC[C@H](NC(=O)CCCCCCCCCCCCCCCCCCC(=O)O)C(=O)O)C(=O)N[C@@H](CO)C(N)=O)[C@@H](C)CC)[C@@H](C)CC

What follows are binders tested against human GLP-1 receptor (human, UniProt P43220 24-463) (assay: cell-based or functional assay).

In order of rising “hGLP1R cAMP EC50 ratio” value:
1. B2  0.0569
2. B4  0.089
3. B1  0.0918
4. B3  0.0969

In order of falling “hGLP1R cAMP Rel EC50” value:
1. B2  1030 pM
2. B1  752 pM
3. B4  702 pM
4. B3  687 pM

What follows are binders tested against T1, human GIP receptor (assay: cell-based or functional assay).

In order of rising “hGIPR cAMP EC50 ratio” value:
1. B4  0.654
2. B3  0.828
3. B1  1.11
4. B2  1.75

In order of rising “hGIPR cAMP Rel EC50” value:
1. B2  106 pM
2. B1  128 pM
3. B3  172 pM
4. B4  287 pM
